Broadly, the Kd is the free concentration of one partner at which half of the binding sites on the other are occupied at equilibrium, for simple one-to-one binding.

The results in this text go back to article PMC4137956 (Immunology, 2014).

Assay [1] addresses T1, C57BL/6 mouse SIRPα, N-terminal domain (d1) (mouse, biotin (on the biotinylation sequence)).
T1 sequence (P97797 whole entry, looked up): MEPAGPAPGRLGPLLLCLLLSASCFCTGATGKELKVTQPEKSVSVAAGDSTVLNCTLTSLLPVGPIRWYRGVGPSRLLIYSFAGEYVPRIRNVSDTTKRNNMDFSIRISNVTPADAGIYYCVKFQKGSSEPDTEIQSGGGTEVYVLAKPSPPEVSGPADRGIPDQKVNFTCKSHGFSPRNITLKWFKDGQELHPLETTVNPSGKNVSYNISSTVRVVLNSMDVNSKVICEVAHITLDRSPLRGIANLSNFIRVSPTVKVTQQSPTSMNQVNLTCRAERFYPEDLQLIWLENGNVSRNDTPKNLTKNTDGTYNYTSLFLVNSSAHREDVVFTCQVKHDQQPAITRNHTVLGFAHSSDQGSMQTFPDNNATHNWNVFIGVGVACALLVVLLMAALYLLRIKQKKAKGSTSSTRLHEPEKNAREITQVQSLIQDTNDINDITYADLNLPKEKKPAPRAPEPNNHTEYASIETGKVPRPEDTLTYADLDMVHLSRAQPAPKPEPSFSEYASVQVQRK
Description: SPR; biotinylated SIRPα variants bound to streptavidin immobilised on a BIAcore CM5 chip, BIAcore 3000, 37°; dilutions of monomeric recombinant CD47 extracellular domain passed over; affinity from equilibrium binding. The following applies: one partner purified.

The target of assay [2] is T2, 129 mouse SIRPα, three extracellular IgSF domains (3d) (mouse, UniProt P97797 32-369, biotin (on the biotinylation sequence)).
T2 sequence (looked up): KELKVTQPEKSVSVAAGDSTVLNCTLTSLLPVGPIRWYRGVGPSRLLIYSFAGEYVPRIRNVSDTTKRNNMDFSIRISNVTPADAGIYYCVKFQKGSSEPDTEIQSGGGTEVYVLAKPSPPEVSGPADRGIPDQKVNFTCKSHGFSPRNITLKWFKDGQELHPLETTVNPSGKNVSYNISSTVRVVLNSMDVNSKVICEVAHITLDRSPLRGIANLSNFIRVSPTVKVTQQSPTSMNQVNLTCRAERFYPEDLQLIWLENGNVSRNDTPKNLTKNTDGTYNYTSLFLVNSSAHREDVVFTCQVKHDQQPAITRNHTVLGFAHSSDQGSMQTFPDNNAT
Described as above. Particulars: one partner purified.

B1: mouse CD47 IgSF domain, monomeric recombinant extracellular domain (domain or fragment)
chain: QLLFSNVNSIEFTSGNETVVIPCIVRNVEAQSTEEMFVKWKLNKSYIFIYDGNKNSTTTDQNFTSAKISVSDLINGIASLKMDKRDAMVGNYTCEVTELSREGKTVIELKNRTVSWFSPNE
B1: the figures for the Kd in assay [1] and in assay [2] were 5.3 µM and 2.5 µM, respectively.
